Experimental data from patent publication US20090005294A1 (CENTRO DE INGENIERIA GENETICA Y BIOTECNOLOGIA, published 2009).
Bridges are numbered along the chain shown (N, C = ends). Where no end group is shown, it is not given here.

Target: T1, CKII substrate peptide RRREEETEEE (optimized consensus domain for CKII phosphorylation)
T1 peptide: RRREEETEEE
Assay: cell-based or functional assay

B1: cyclic peptide (i) CKQSYLHHLLC (peptide)
peptide: CKQSYLHHLLC
modifications: disulfide 1-11 (inferred)
In the case of B1, the “inhibition of CKII phosphorylation of the substrate peptide (32P, cpm on filters)” value (“inhibition” below) is reported as 80%.

B2: cyclic peptide (g) CHYIAGTVQGC (peptide)
peptide: CHYIAGTVQGC
modifications: disulfide 1-11 (inferred)
For B2, the “inhibition” value was 80%.

B3: cyclic peptide (b) CSSCQNSPALC (peptide)
peptide: CSSCQNSPALC
modifications: disulfide 1-11
For B3, the “inhibition” value was 80%.

B4: cyclic peptide (h) CPLVSLRDHSC (peptide)
peptide: CPLVSLRDHSC
modifications: disulfide 1-11 (inferred)
In the case of B4, the “inhibition” value is reported as 80%.

B5: cyclic peptide (c) CQIPQRTATRC (peptide)
peptide: CQIPQRTATRC
modifications: disulfide 1-11 (inferred)
In the case of B5, the “inhibition” value is reported as 80%.

B6: cyclic peptide (j) CFQPLTPLCRC (peptide)
peptide: CFQPLTPLCRC
modifications: disulfide 1-11
For B6, the “inhibition” value was 80%.

B7: cyclic peptide (f) CRNCTVIQFSC (peptide)
peptide: CRNCTVIQFSC
modifications: disulfide 1-11
For B7, the “inhibition” value was 80%.

B8: cyclic peptide (e) CWMSPRHLGTC (peptide)
peptide: CWMSPRHLGTC
modifications: disulfide 1-11 (inferred)
For B8, the “inhibition” value was 80%.

B9: cyclic peptide (k) CQSYHELLLQC (peptide)
peptide: CQSYHELLLQC
modifications: disulfide 1-11 (inferred)
B9 was tested, and the “inhibition” value was 80%.

B10: cyclic peptide (d) CAKQRTDPGYC (peptide)
peptide: CAKQRTDPGYC
modifications: disulfide 1-11 (inferred)
With B10 the “inhibition” value was 80%.

B11: cyclic peptide (a) CSVRQGPVQKC (peptide)
peptide: CSVRQGPVQKC
modifications: disulfide 1-11 (inferred)
For B11, the “inhibition” value was 80%.
